From IntAct's records for PubMed 19017798 come the findings set out here.

To fix the notation:
B1: Latent membrane protein 1 (Epstein-Barr virus (strain B95-8) (HHV-4)), P03230 (parent)
chain: MEHDLERGPPGPRRPPRGPPLSSSLGLALLLLLLALLFWLYIVMSDWTGGALLVLYSFALMLIIIILIIFIFRRDLLCPLGALCILLLMITLLLIALWNLHGQALFLGIVLFIFGCLLVLGIWIYLLEMLWRLGATIWQLLAFFLAFFLDLILLIIALYLQQNWWTLLVDLLWLLLFLAILIWMYYHGQRHSDEHHHDDSLPHPQQATDDSGHESDSNSNEGRHHLLVSGAGDGPPLCSQNLGAPGGGPDNGPQDPDNTDDNGPQDPDNTDDNGPHDPLPQDPDNTDDNGPQDPDNTDDNGPHDPLPHSPSDSAGNDGGPPQLTEEVENKGGDQGPPLMTDGGGGHSHDSGHGGGDPHLPTLLLGSSGSGGDDDDPHGPVQLSYYD
partner: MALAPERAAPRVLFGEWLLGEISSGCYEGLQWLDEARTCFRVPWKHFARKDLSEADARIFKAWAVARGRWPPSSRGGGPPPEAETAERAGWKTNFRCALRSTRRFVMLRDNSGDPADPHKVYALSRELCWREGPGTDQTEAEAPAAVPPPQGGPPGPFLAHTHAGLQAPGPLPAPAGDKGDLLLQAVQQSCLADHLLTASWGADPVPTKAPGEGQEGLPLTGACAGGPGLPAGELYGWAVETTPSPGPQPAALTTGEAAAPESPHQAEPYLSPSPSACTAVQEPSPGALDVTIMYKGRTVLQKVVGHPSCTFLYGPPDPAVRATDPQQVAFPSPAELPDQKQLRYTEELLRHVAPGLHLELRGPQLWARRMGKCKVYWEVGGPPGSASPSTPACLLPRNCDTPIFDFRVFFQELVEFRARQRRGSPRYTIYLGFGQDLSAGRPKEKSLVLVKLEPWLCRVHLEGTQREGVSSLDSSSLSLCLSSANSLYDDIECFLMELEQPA

In the experiment the parent is B1. The note with it: with IRF7, Q92985-1.
As for P376A;H377A;G378A;P379A;V380A;Q381A;L382A;S383A, the “effect of a mutation on the interaction” value is on record as “disrupting interaction”.
